Source: patent publication US20250197848A1 (published 2025)

Tests used:
[1] = target: T1, NY-ESO-1/LAGE-1 peptide on HLA-A*02 (human); test: cytokine release
T1 peptide: SLLMWITQC

[2] = target: T2, PRAME peptide on HLA-A*02:01 (human); test: cytokine release
T2 peptide: VLDGLDVLL

[3] = target: T3, PRAME peptide on HLA-A*02:01 (human); test: activation reporter or marker
T3 peptide: SLLQHLIGL

B1: NY-ESO TCR (TCR, V domains shown)
Valpha: QKEVEQNSGPLSVPEGAIASLNCTYSDRGSQSFFWYRQYSGKSPELIMFIYSNGDKEDGRFTAQLNKASQYVSLLIRDSQPSDSATYLCAADDKIIFGKGTRLHILP
Vbeta: DAGVIQSPRHEVTEMGQEVTLRCKPISGHDYLFWYRQTMMRGLELLIYFNNNVPIDDSGMPEDRFSAKMPNASFSTLKIQPSEPRDSAVYFCASSRGGSGYTFGSGTRLTVV
binding result [1]: recognises

B2: PRAMEVLD-TCR (TCR, V domains shown)
Valpha: EDQVTQSPEALRLQEGESSSLNCSYTVSGLRGLFWYRQDPGKGPEFLFTLYSAGEEKEKERLKATLTKKESFLHITAPKPEDSATYLCAVHSTAQAGTALIFGKGTTLSVSS
Vbeta: DSGVTQTPKHLITATGQRVTLRCSPRSGDLSVYWYQQSLDQGLQFLIQYYNGEERAKGNILERFSAQQFPDLHSELNLSSLELGDSALYFCASSTHRGQTNYGYTFGSGTRLTVV
binding result [2]: recognises
binding result [3]: no recognition
